{"source": "patent US20200392251A1", "about": "(University of California, published 2020)", "binders": {"B1": {"name": "anti-MMP-14 Fab 2D9 (Fab, V domains shown)", "VH": "EVQLVESGGGLVQPGGSLRLSCAASGFNISSSSMHWVRQAPGKGLEWVASIYPYYGYTYYADSVKGRFTISADTSKNTAYLQMNSLRAEDTAVYYCARGVTRFTNDASVGQVWAGAYGMDYWGQGTLVTVSS", "VL": "DIQMTQSPSSLSASVGDRVTITCRASQSVSSAVAWYQQKPGKAPKLLIYSASSLYSGVPSRFSGSRSGTDFTLTISSLQPEDFATYYCQQSSYSLITFGQGTKVEIKR", "notes": "Fab from a synthetic human Fab library, produced in E. coli periplasm; also called Clone 2D9"}, "B2": {"name": "anti-MMP-14 Fab 2A6 (Fab, V domains shown)", "VH": "EVQLVESGGGLVQPGGSLRLSCAASGFNFSSSSIHWVRQAPGKGLEWVASISSSYGYTYYADSVKGRFTISADTSKNTAYLQMNSLRAEDTAVYYCARVVRMLPVRCIPRCIKTTLPLYGMDYWGQGTLVTVSS", "VL": "DIQMTQSPSSLSASVGDRVTITCRASQSVSSAVAWYQQKPGKAPKLLIYSASSLYSGVPSRFSGSRSGTDFTLTISSLQPEDFATYYCQQSSFPFTFGQGTKVEIKR", "notes": "Fab from a synthetic human Fab library, produced in E. coli periplasm; also called Clone 2A6"}, "B3": {"name": "anti-MMP-14 Fab 2B10 (Fab, V domains shown)", "VH": "EVQLVESGGGLVQPGGSLRLSCAASGFNIYYSYMHWVRQAPGKGLEWVASIYPSYGYTYYADSVKGRFTISADTSKNTAYLQMNSLRAEDTAVYYCARQLFACWRQSILTPPLLSAMMMGYAMDYWGQGTLVTVSS", "VL": "DIQMTQSPSSLSASVGDRVTITCRASQSVSSAVAWYQQKPGKAPKLLIYSASSLYSGVPSRFSGSRSGTDFTLTISSLQPEDFATYYCQQYSVAYVWLITFGQGTKVEIKR", "notes": "Fab from a synthetic human Fab library, produced in E. coli periplasm; also called Clone 2B10"}, "B4": {"name": "anti-Alp2 Fab A4A2 (Fab, V domains shown)", "VH": "EVQLVESGGGLVQPGGSLRLSCAASGFNLSSSSMHWVRQAPGKGLEWVASIYPSYSYTYYADSVKGRFTISADTSKNTAYLQMNSLRAEDTAVYYCARKTSDQYLLVGGSFFKLRDCCYVMDYWGQGTLVTVSS", "VL": "B2 VL with S91A, F93H, P94L, F95I", "notes": "Fab from a synthetic human Fab library, produced in E. coli periplasm; also called Clone A4A2"}, "B5": {"name": "anti-Alp2 Fab A4A1 (Fab, V domains shown)", "VH": "EVQLVESGGGLVQPGGSLRLSCAASGFNISSYYIHWVRQAPGKGLEWVASIYSYSSYTYYADSVKGRFTISADTSKNTAYLQMNSLRAGDTAVYYCARFGSWSYAIDYWGQGTLVTVSS", "VL": "B2 VL with S91A, F93H, P94L, F95I", "notes": "Fab from a synthetic human Fab library, produced in E. coli periplasm; also called Clone A4A1"}, "B6": {"name": "N-terminal domain of tissue inhibitor of metalloproteinases 2 (nTIMP-2) (other, UniProt P16035 27-153, looked up)", "chain": "CSCSPVHPQQAFCNADVVIRAKAVSEKEVDSGNDIYGNPIKRIQYEIKQIKMFKGPEKDIEFIYTAPSSAVCGVSLDVGGKKEYLIAGKAEGDGKMHITLCDFIVPWDTLSTTQKKSLNHRYQMGCE", "notes": "domain: N-terminal domain; Periplasmically expressed and purified as reported elsewhere"}}, "key": {"[1]": {"biological_target": "T1, catalytic domain of human MMP-14 (cdMMP-14) (human, UniProt P50281 114-320)", "T1 construct": "range 114-320; Produced active in E. coli periplasm; biotinylated for BLI/ELISA", "assay": "biolayer interferometry; biotinylated protease on streptavidin sensor, Fab in solution", "experimental": "(§1) Binding kinetics of produced antibodies towards associated protease targets were analyzed by using biolayer interferometry (ForteBio). For Fabs, biotinylated proteases were immobilized on streptavidin biosensors, and Fab binding to the sensors in absence of protease was monitored as backgrounds."}, "[2]": {"biological_target": "T1, catalytic domain of human MMP-14 …", "assay": "enzyme inhibition assay with FRET peptide substrate (M-2350), Fab titrated on cdMMP-14 [panel 2D9]", "experimental": "(§2) For inhibition tests, 1 μM Fabs were 2-fold serially diluted into protease specific assay buffer and incubated with 1-10 nM proteases for 30 min at room temperature. […] Inhibition percentages at given concentrations were calculated by comparing the initial reaction rates in the presence or absence of inhibitor. […] Vₘₐₓ and Kₘ at various Fab concentrations were measured to determine the inhibition type. FRET inhibition assays were also used for selectivity tests of isolated Fabs with the relevant proteases."}, "[3]": {"biological_target": "T1, catalytic domain of human MMP-14 …", "assay": "bio-layer interferometry (ForteBio), biotinylated protease on streptavidin biosensor, Fab in solution [panel 2D9]", "experimental": "as §1"}, "[4]": {"biological_target": "T1, catalytic domain of human MMP-14 …", "assay": "FRET peptide inhibition assay; KI=IC50/(S/Km+1)", "experimental": "as §2"}, "[5]": {"biological_target": "T1, catalytic domain of human MMP-14 …", "assay": "enzyme inhibition assay with FRET peptide substrate (M-2350), Fab titrated on cdMMP-14 [panel 2A6]", "experimental": "as §2"}, "[6]": {"biological_target": "T1, catalytic domain of human MMP-14 …", "assay": "bio-layer interferometry (ForteBio), biotinylated protease on streptavidin biosensor, Fab in solution [panel 2A6]", "experimental": "as §1"}, "[7]": {"biological_target": "T1, catalytic domain of human MMP-14 …", "assay": "enzyme inhibition assay with FRET peptide substrate (M-2350), Fab titrated on cdMMP-14 [panel 2B10]", "experimental": "as §2"}, "[8]": {"biological_target": "T1, catalytic domain of human MMP-14 …", "assay": "bio-layer interferometry (ForteBio), biotinylated protease on streptavidin biosensor, Fab in solution [panel 2B10]", "experimental": "as §1"}, "[9]": {"biological_target": "T2, Aspergillus fumigatus autophagic serine protease 2 (Alp2) (Aspergillus fumigatus, UniProt P87184 136-495)", "T2 construct": "range 136-495; Produced active in E. coli periplasm; biotinylated for BLI", "T2 sequence": "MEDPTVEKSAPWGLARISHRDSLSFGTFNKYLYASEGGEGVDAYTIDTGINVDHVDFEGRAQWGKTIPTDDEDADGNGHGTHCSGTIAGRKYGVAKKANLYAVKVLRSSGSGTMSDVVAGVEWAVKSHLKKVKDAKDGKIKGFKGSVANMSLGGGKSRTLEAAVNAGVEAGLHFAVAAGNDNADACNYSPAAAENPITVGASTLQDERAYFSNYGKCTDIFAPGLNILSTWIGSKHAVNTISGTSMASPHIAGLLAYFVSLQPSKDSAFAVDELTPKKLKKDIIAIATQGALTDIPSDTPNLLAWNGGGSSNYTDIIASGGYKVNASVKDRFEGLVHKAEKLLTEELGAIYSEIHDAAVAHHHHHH", "assay": "enzyme inhibition assay with FRET peptide substrate (Mca-[..](Dnp)), Fab titrated on Alp2 [panel A4A2]", "experimental": "as §2"}, "[10]": {"biological_target": "T2, Aspergillus fumigatus autophagic serine …", "assay": "enzyme inhibition assay with FRET peptide substrate, Fab titrated on Alp2 [panel B]", "experimental": "as §2"}, "[11]": {"biological_target": "T3, human MMP-12 catalytic domain mutant D4 (cdMMP-12 D4) (human)", "T3 construct": "PROSS-designed expression-optimised mutant; Cytoplasmically expressed in E. coli, purified on Ni-NTA; biotinylated for ELISA/BLI; also called cdMMP-12 mutant D4; modified D4", "T3 sequence (chain, as listed by the source mutant limits assumed)": "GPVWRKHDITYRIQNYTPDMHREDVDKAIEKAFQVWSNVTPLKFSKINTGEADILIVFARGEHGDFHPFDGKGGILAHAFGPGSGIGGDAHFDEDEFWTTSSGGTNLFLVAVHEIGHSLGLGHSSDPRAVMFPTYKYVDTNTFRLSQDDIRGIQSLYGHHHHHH", "assay": "competitive ELISA: nTIMP-2 (0.8-200 µM) premixed with 500 nM Fab LG4 (the competitor displaced), added to immobilised cdMMP-12 D4, bound Fab detected with anti-Fab-HRP (OD450) [panel A, right]", "experimental": "(§3) On streptavidin coated ELISA plates, 5 μg/mL biotinylated cdMMPs were immobilized and incubated with two-fold serially diluted purified Fabs. Bound Fabs were detected with anti-Fab-HRP (Sigma-Aldrich), and signals were developed by TMB substrate (Thermo Scientific) and measured using a microplate reader (BioTek). […] Bound Fabs were detected using anti-Fab-HRP."}, "[12]": {"biological_target": "T4, human MMP-12 catalytic domain wild type (cdMMP-12 wt) (human, UniProt P39900 106-263)", "T4 construct": "biotinylated for ELISA/BLI; also called wt cdMMP-12; cdMMP-12 wide-type", "T4 sequence (P39900 other isoform, or with tags, fused parts or gaps limits assumed)": "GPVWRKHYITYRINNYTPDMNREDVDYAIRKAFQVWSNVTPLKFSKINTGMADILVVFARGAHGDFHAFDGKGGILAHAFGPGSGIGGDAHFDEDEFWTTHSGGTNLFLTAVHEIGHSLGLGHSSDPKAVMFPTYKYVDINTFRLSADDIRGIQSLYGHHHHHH", "assay": "competitive ELISA: nTIMP-2 (0.8-200 µM) premixed with 500 nM Fab LH6 (the competitor displaced), added to immobilised cdMMP-12 wt, bound Fab detected with anti-Fab-HRP (OD450) [panel B, right]", "experimental": "as §3"}, "[13]": {"biological_target": "T4, human MMP-12 catalytic domain wild type …", "assay": "competitive ELISA: nTIMP-2 (0.8-200 µM) premixed with 500 nM Fab LG4 (the competitor displaced), added to immobilised cdMMP-12 wt, bound Fab detected with anti-Fab-HRP (OD450) [panel B, right]", "experimental": "as §3"}, "[14]": {"biological_target": "T3, human MMP-12 catalytic domain mutant D4 …", "assay": "competitive ELISA: nTIMP-2 (0.8-200 µM) premixed with 500 nM Fab LH6 (the competitor displaced), added to immobilised cdMMP-12 D4, bound Fab detected with anti-Fab-HRP (OD450) [panel A, right]", "experimental": "as §3"}, "[15]": {"biological_target": "T4, human MMP-12 catalytic domain wild type …", "assay": "competitive ELISA: nTIMP-2 (0.8-200 µM) premixed with 500 nM Fab LH11 (the competitor displaced), added to immobilised cdMMP-12 wt, bound Fab detected with anti-Fab-HRP (OD450) [panel B, right]", "experimental": "as §3"}, "[16]": {"biological_target": "T4, human MMP-12 catalytic domain wild type …", "assay": "BLItz bio-layer interferometry; printed as 'Affinity ... (nM)'"}, "[17]": {"biological_target": "T3, human MMP-12 catalytic domain mutant D4 …", "assay": "competitive ELISA: nTIMP-2 (0.8-200 µM) premixed with 500 nM Fab LH11 (the competitor displaced), added to immobilised cdMMP-12 D4, bound Fab detected with anti-Fab-HRP (OD450) [panel A, right]", "experimental": "as §3"}}, "note": "Numbering of substitutions follows the chain as printed.", "data": [{"binder": "B1", "values": [{"measurement": "Kd", "setting": "[1]", "result": 260, "unit": "nM"}, {"measurement": "IC50", "setting": "[2]", "result": 260, "unit": "nM"}, {"measurement": "koff", "setting": "[3]", "result": 0.0039, "unit": "s⁻¹"}, {"measurement": "kon", "setting": "[3]", "result": 15000, "unit": "M⁻¹ s⁻¹"}, {"measurement": "Ki", "setting": "[4]", "result": 230, "unit": "nM"}]}, {"binder": "B2", "values": [{"measurement": "Kd", "setting": "[1]", "result": 130, "unit": "nM"}, {"measurement": "IC50", "setting": "[5]", "result": 480, "unit": "nM"}, {"measurement": "koff", "setting": "[6]", "result": 0.003, "unit": "s⁻¹"}, {"measurement": "kon", "setting": "[6]", "result": 24000, "unit": "M⁻¹ s⁻¹"}, {"measurement": "Ki", "setting": "[4]", "result": 430, "unit": "nM"}]}, {"binder": "B3", "values": [{"measurement": "Kd", "setting": "[1]", "result": 46, "unit": "nM"}, {"measurement": "IC50", "setting": "[7]", "result": 240, "unit": "nM"}, {"measurement": "koff", "setting": "[8]", "result": 0.0018, "unit": "s⁻¹"}, {"measurement": "kon", "setting": "[8]", "result": 40000, "unit": "M⁻¹ s⁻¹"}, {"measurement": "Ki", "setting": "[4]", "result": 210, "unit": "nM"}]}, {"binder": "B4", "values": [{"measurement": "IC50", "setting": "[9]", "result": 250, "unit": "nM"}]}, {"binder": "B5", "values": [{"measurement": "IC50", "setting": "[10]", "result": 15, "unit": "nM"}]}, {"binder": "B6", "values": [{"measurement": "EC50", "setting": "[11]", "result": 42000, "unit": "nM"}, {"measurement": "EC50", "setting": "[12]", "result": 32000, "unit": "nM"}, {"measurement": "EC50", "setting": "[13]", "result": 44000, "unit": "nM"}, {"measurement": "EC50", "setting": "[14]", "result": 23000, "unit": "nM"}, {"measurement": "EC50", "setting": "[15]", "result": 26000, "unit": "nM"}, {"measurement": "Kd", "setting": "[16]", "result": 150, "unit": "nM"}, {"measurement": "EC50", "setting": "[17]", "result": 18000, "unit": "nM"}]}]}
